The results in this text go back to patent US20260167959A1, “APTAZYME-BASED REGULATABLE GENE EXPRESSION SYSTEMS” (REJUVENATE BIO INC, priority 2022, published 2026).

B1: RA471 (nucleic acid)
DNA: GCGCGTCCTGGATTCGCGGAAACGCGTACATCCAGCTGACGAGTCCCAAATAGGACCGAGAATACCAGCATCGTCTTGATGCCCTTGGAAGTCTCGGAAACGCGC
modifications: expressed or natural sequence
B2: RA468 (nucleic acid)
DNA: GCGCGTCCTGGATTCGCGGAAACGCGTACATCCAGCCGAGAATACCAGCATCGTCTTGATGCCCTTGGAAGTCTCGTGACGAGTCCCAAATAGGACGAAACGCGC
modifications: expressed or natural sequence; listed as DNA, chemistry not fully specified
B3: RA466 (nucleic acid)
DNA: GCGCGTCCTGGATTCGCGGAACGGAATACCAGCATCGTCTTGATGCCCTTGGAAGTCCGACGCGTACATCCAGCTGACGAGTCCCAAATAGGACGAAACGCGC
modifications: expressed or natural sequence
B4: RA461 (nucleic acid)
DNA: GCGCGTCCTGGATTCGCGGAAACGCGTACATCCAGGAGAATACCAGCATCGTCTTGATGCCCTTGGAAGTCTCCTGACGAGTCCCAAATAGGACGAAACGCGC
modifications: expressed or natural sequence
B5: RA476 (nucleic acid)
DNA: GCGCGTCCTGGATTCGCGGAAACGCGTACATCCAGCTGACGAGTCCCAAATAGGACGAAAAGAATACCAGCATCGTCTTGATGCCCTTGGAAGTCTCGCGC
modifications: expressed or natural sequence
B6: RA462 (nucleic acid)
DNA: GCGCGTCCTGGATTCGCGCCGGAATACCAGCATCGTCTTGATGCCCTTGGAAGTCCGGGAAACGCGTACATCCAGCTGACGAGTCCCAAATAGGACGAAACGCGC
modifications: expressed or natural sequence
B7: RA474 (nucleic acid)
DNA: GCGCGTCCTGGATTCGCGGAAACGCGTACATCCAGCTGACGAGTCCCAAATAGGACGAAACGCGCGGAATACCAGCATCGTCTTGATGCCCTTGGAAGTCCGC
modifications: expressed or natural sequence
B8: RA464 (nucleic acid)
DNA: GCGCGTCCTGGAGTGATACCAGCATCGTCTTGATGCCCTTGGCAGCACTATTCGCGGAAACGCGTACATCCAGCTGACGAGTCCCAAATAGGACGAAACGCGC
modifications: expressed or natural sequence
B9: RA460 (nucleic acid)
DNA: GCGCGTCCTGGATTCGCAGTGATACCAGCATCGTCTTGATGCCCTTGGCAGCACTGGAAACGCGTACATCCAGCTGACGAGTCCCAAATAGGACGAAACGCGC
modifications: expressed or natural sequence
B10: RA472 (nucleic acid)
DNA: GCGCGTCCTGGATTCGCGGAAACGCGTACATCCAGCTGACGAGTCCCAAATAGAGAATACCAGCATCGTCTTGATGCCCTTGGAAGTCTCGGACGAAACGCGC
modifications: expressed or natural sequence
B11: RA475 (nucleic acid)
DNA: GCGCGTCCTGGATTCGCGGAAACGCGTACATCCAGCTGACGAGTCCCAAATAGGACGAAACGCGAGAATACCAGCATCGTCTTGATGCCCTTGGAAGTCTCGC
modifications: chemistry not given here
B12: RA470 (nucleic acid)
DNA: GCGCGTCCTGGATTCGCGGAAACCGAGAATACCAGCATCGTCTTGATGCCCTTGGAAGTCTCGGCGTACATCCAGCTGACGAGTCCCAAATAGGACGAAACGCGC
modifications: expressed or natural sequence
B13: RA473 (nucleic acid)
DNA: GCGCGTCCTGGATTCGCGGAAACGCGTACATCCAGCTGACGAGTCCCAAATAGTGATACCAGCATCGTCTTGATGCCCTTGGCAGCACTAGGACGAAACGCGC
modifications: expressed or natural sequence
B14: RA465 (nucleic acid)
DNA: GCGCGTCCTGGATTCGCGGAAACGCGTACATCCAGCTGACCGAGAATACCAGCATCGTCTTGATGCCCTTGGAAGTCTCGGAGTCCCAAATAGGACGAAACGCGC
modifications: expressed or natural sequence
B15: RA469 (nucleic acid)
DNA: GCGAGAATACCAGCATCGTCTTGATGCCCTTGGAAGTCTCGCGCGTCCTGGATTCGCGGAAACGCGTACATCCAGCTGACGAGTCCCAAATAGGACGAAACGCGC
modifications: expressed or natural sequence
B16: RA467 (nucleic acid)
DNA: GCGCGTCCTGGATTCGCGGAAACGAGAATACCAGCATCGTCTTGATGCCCTTGGAAGTCTCGTACATCCAGCTGACGAGTCCCAAATAGGACGAAACGCGC
modifications: expressed or natural sequence
B17: RA463 (nucleic acid)
DNA: GCGCGTCCTGGATTCGCGGAAACGCGTACATCCAGCTGACGAGTCGAGAATACCAGCATCGTCTTGATGCCCTTGGAAGTCTCGCCCAAATAGGACGAAACGCGC
modifications: expressed or natural sequence
B18: RA047 (nucleic acid)
DNA: GCGCGTCCTGGATTCGCGGAAACGCGTACATCCAGCTGACGAGTCCCAGGAATACCAGCATCGTCTTGATGCCCTTGGAAGTCCAATAGGACGAAACGCGC
modifications: expressed or natural sequence
B19: RA004: exemplary aptazyme of the T3H48 aptazyme variant library (nucleic acid)
DNA: GCGCGTCCTGGATTCGCGGAAACGCGTACATCCAGCTGACGAGTCCCAAATAGGCCGGAATACCAGCATCGTCTTGATGCCCTTGGAAGTCCGGACGAAACGCGC
modifications: expressed or natural sequence
notes: exemplary aptazyme of the T3H48 aptazyme variant library
B20: RA046 (nucleic acid)
DNA: GCGCGTCCTGGATTCGCGGAAACGCGTACATCCAGCTGACGAGTCCGGAATACCAGCATCGTCTTGATGCCCTTGGAAGTCCGCCAAATAGGACGAAACGCGC
modifications: expressed or natural sequence

In one series the test system is Renilla luciferase RNA. The series is described as follows: Barcoded aptazyme variant library screen: un-cleaved Renilla luciferase RNA by barcode read counts, HEK293-T cells. The class given is cell-based. The note with it: un-cleaved Renilla luciferase RNA by barcode read counts; with 1 mM theophylline (ON) over without theophylline (OFF); HEK293-T cells; triplicate. The essentials:
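Aptazyme variants (seven theophylline aptamers inserted after each T3H48 ribozyme nucleotide, 9-nt barcoded) cloned into the 3′ UTR of Renilla luciferase in psiCHECK-2; cells cultured ± theophylline, in triplicate. RNA and DNA barcodes amplified and sequenced; normalized read counts gave un-cleaved RNA fraction and ON/OFF fold-change.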
In the case of B1, the “Fold change in RNA expression between the ON state and the OFF state” value (“Fold change” below) is given as 0.4.

Turning to B2, the “Fold change” value was found to be 0.4.

As to B3, the “Fold change” value is 0.4.

As for B4, the “Fold change” value is listed as 0.5.

In the case of B5, the “Fold change” value is given as 0.2.

For the molecule B6, the “Fold change” value was 0.4.

Take B7: the “Fold change” value came to 0.3.

For the molecule B8, the “Fold change” value is listed as 0.4.

Regarding B9, the “Fold change” value came out at 0.5.

In the case of B10, the “Fold change” value is given as 0.3.

For B11, the “Fold change” value is given as 0.3.

Consider B12, for which the “Fold change” value came to 0.4.

Regarding B13, the “Fold change” value was found to be 0.3.

B14: the “Fold change” value was found to be 0.4.

B15: the “Fold change” value was 0.4.

For the molecule B16, the “Fold change” value came to 0.4.

Take B17: the “Fold change” value is 0.4.

Still in this series, the particulars now being: un-cleaved Renilla luciferase RNA, HEK293-T cells cultured with 1 mM theophylline (ON) over without theophylline (OFF); barcode read counts, triplicate.
As to B18, the “Fold change” value came out at 2.0 fold.

As for B19, the “Fold change” value came out at 5.3 fold.

Take B20: the “Fold change” value is listed as 2.0 fold.
